The target in experiment [1] is neutralizing antibody CR3022.
Experiment [2] addresses neutralizing antibody CR3022. This is another data set of the same source.
In experiment [3] the target is neutralizing antibody CR3022. The source holds these as a separate data set.

This is an account of results in patent US20240262869A1.

Where two headings read alike, the source gives them in different places.

With “mInCV02R (SARS CoV-2 RBD N-1) having EIS at the N-terminal (from UniProt P0DTC2 332-532) (ligand)”, the Kd (commonly the concentration at which binding is half-saturated) in experiment [1] is 15.9 nM; in experiment [2], 16.5 nM; in experiment [3], < 1 nM.
